Data as given in patent US4029771A, “Composition for the treatment of bacterial-intestinal infections” (priority 1975, dated 1977).

How the values were obtained:
[1] = tested on: children affected by acute initial gastroenteropathy; assay: Clinical efficacy test in 32 children with acute initial gastroenteropathy vs chemiantibiotic group; type: in vivo
Description: The tests were conducted on a group of 32 children (14 males, 18 females) of an age group comprised between 2 months and 2 years, affected by acute initial gastroenteropathy.
The test group comprised forms of substantial gravity (15.6% of the total cases), forms of intermediate gravity (43.7%), and finally forms of least gravity (40.6%), determined by known clinical diagnostic methods.
In all cases, in addition to the oral or parental rehydration (in 21.8% of the cases there was actually performed a parental rehydration with glucosaline and polyelectric solutions) and to the usual dietetic treatment, there was performed symptomatic therapy with anticholinergic agents.
The product was administered orally to all the test subjects at a dosage of 300 mg. per day, divided into three equal doses.
The duration of the therapy varied from a minimum of 5 days to a maximum of 10 days.
It was thought opportune, on a clinical plane, to evaluate the test results according to the following parameters:
(1) average time of normalization of the abdomen.
(2) number and percentage of the cases with regularization of the abdomen within the first 48 hours (see Table II and figure 1).
(3) average duration of the time of therapy.
There was further compared the test subjects with a group of subjects of similar age and equally affected by acute initial gastroenteropathy which had received, in addition to the usual symptomatic and dietetic therapy, a chemiantibiotic treatment.
It is important to note that this second group presented a clinical physionomy similar to that of the test group (and therefore with a percentage division equal between forms of different gravity) and further belonging chronologically to the same epidemiological period.

experimental animals = assay: Tolerability in experimental animals at therapeutically active doses; type: in vivo
[2] = Storage stability of the liophylized product; type: physicochemical
[3] = tested on: male and female rat (Sprague-Dawley); assay: Acute toxicity on single administration, male and female rat (Sprague-Dawley); type: in vivo; settings: for Mortality after 7 days: 1000 mg/kg single dose, 10 rats per dose; for LD50: single administration, 7 days
Description: (a) Toxicity on single administration.
The experiment was conducted on rats and mice (male and female) by oral and intraperitoneal administration of conalbumen dissolved in double-distilledsterile water. The animals were kept under control for 7 days following the administration.
Acute toxicity of the product after a single admini-
stration to the male and female rat (Sprague-Dawley).

[4] = tested on: germs which are pathogenic to man; assay: Treatment of experimental infections in laboratory animals; type: in vivo; settings: laboratory animals injected with germs pathogenic to man
[5] = 32 cases per group, product oral 300 mg per day in three doses
[6] = percentage distribution, drawing
[7] = product vs chemiantibiotics group

B1: conalbumen: transferrin (ovotransferrin or conalbumen) extracted in a pure state from egg white (protein, UniProt P02789 20-705, looked up)
Ovotransferrin: APPKSVIRWCTISSPEEKKCNNLRDLTQQERISLTCVQKATYLDCIKAIANNEADAISLDGGQAFEAGLAPYKLKPIAAEVYEHTEGSTTSYYAVAVVKKGTEFTVNDLQGKTSCHTGLGRSAGWNIPIGTLLHRGAIEWEGIESGSVEQAVAKFFSASCVPGATIEQKLCRQCKGDPKTKCARNAPYSGYSGAFHCLKDGKGDVAFVKHTTVNENAPDQKDEYELLCLDGSRQPVDNYKTCNWARVAAHAVVARDDNKVEDIWSFLSKAQSDFGVDTKSDFHLFGPPGKKDPVLKDLLFKDSAIMLKRVPSLMDSQLYLGFEYYSAIQSMRKDQLTPSPRENRIQWCAVGKDEKSKCDRWSVVSNGDVECTVVDETKDCIIKIMKGEADAVALDGGLVYTAGVCGLVPVMAERYDDESQCSKTDERPASYFAVAVARKDSNVNWNNLKGKKSCHTAVGRTAGWVIPMGLIHNRTGTCNFDEYFSEGCAPGSPPNSRLCQLCQGSGGIPPEKCVASSHEKYFGYTGALRCLVEKGDVAFIQHSTVEENTGGKNKADWAKNLQMDDFELLCTDGRRANVMDYRECNLAEVPTHAVVVRPEKANKIRDLLERQEKRFGVNGSEKSKFMMFESQNKDLLFKDLTKCLFKVREGTTYKEFLGDKFYTVISSLKTCNPSDILQMCSFLEGK
Average time of Therapy [1, 5]: 6,1 days
Percentage normalization within 48 hours [1, 5]: 53,1 Percentage
Average time of normalization of the abdomen ([1]; 32 cases per group, product oral 300 mg per day in three doses, p <0,40): 2,56
No. of cases with normalization within 48 hours ([1]; of 32 cases per group, product oral 300 mg per day in three doses): 17
Clinical results ([1]; overall): very favorable
Clinical results with respect to the group treated with chemiantibiotics ([1]; overall comparison): definitely better
Distribution in the time of normalization of the abdomen, days with most cases [1, 6]: between the second and third day
Peak in the time of normalization of the abdomen [1, 6]: second day
Average time of normalization of the abdomen, comparison with chemiantibiotics [1, 7]: slightly lower
Number of cases and percentage of normalization of the abdomen within the first 48 hours, comparison with chemiantibiotics [1, 7]: higher
Toxic manifestation or significant side effects (experimental animals): does not result in toxic manifestation or in significant side effects
Maintains its properties unchanged ([2]; liophylized, kept at ambient or lower temperature): at least 6 months
Period for which the product can be kept ([2]; vials containing 100 mg. or more, liophylized form): indefinite periods
Mortality after 7 days ([3]; female 90-105 g, oral): 0/10
LD50 ([3]; female 90-105 g, oral): > 1000 mg/kg
Mortality after 7 days ([3]; female 100-110 g, i.p.): 0/10
LD50 ([3]; female 100-110 g, i.p.): > 1000 mg/kg
Mortality after 7 days ([3]; male 100-120 g, i.p.): 0/10
LD50 ([3]; male 100-120 g, i.p.): > 1000 mg/kg
Mortality after 7 days ([3]; male 100-130 g, oral): 0/10
LD50 ([3]; male 100-130 g, oral): > 1000 mg/kg
Efficacy in experimental infections [4]: surprising efficacy
